Measured values: publication PMC2631437 (Molecular microbiology, 2008)
Positions count from the first letter of the chain named. Where no end group is shown, it is not given here. The star is where a group is joined. FITC = O=C1OC2(c3ccc(O)cc3Oc3cc(O)ccc32)c2ccc(NC(=S)*)cc21

What was measured:
[1] = target: T1, MotA wild type (bacteriophage T4, UniProt P22915 1-211); experiment: EMSA
T1 sequence: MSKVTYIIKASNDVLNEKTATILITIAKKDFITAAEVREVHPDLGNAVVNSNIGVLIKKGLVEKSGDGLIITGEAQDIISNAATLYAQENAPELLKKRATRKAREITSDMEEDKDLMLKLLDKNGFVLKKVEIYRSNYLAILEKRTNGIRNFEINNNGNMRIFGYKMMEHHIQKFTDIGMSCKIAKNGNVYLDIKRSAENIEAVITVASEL

[2] = target: T2, MotA, full length (wild type) (bacteriophage T4, UniProt P22915 1-211); experiment: NMR titration
T2 sequence (looked up): T1 sequence

[3] = target: T3, AsiA (bacteriophage T4, UniProt P32267 1-90); experiment: NMR titration
T3 sequence (looked up): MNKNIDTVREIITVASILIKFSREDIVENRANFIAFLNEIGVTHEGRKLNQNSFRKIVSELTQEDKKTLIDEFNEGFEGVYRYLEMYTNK

[4] = target: T2, MotA, full length (wild type); experiment: fluorescence polarisation
[5] = target: T4, MotA S80R, full length (bacteriophage T4, UniProt P22915 1-211, S80R); experiment: fluorescence polarisation
T4 sequence (looked up): T1 sequence with S80R

[6] = target: T5, MotA D43K, full length (bacteriophage T4, UniProt P22915 1-211, D43K); experiment: fluorescence polarisation
T5 sequence (looked up): T1 sequence with D43K

[7] = target: T6, MotA K59E, full length (bacteriophage T4, UniProt P22915 1-211, K59E); experiment: fluorescence polarisation
T6 sequence (looked up): T1 sequence with K59E

[8] = target: T7, MotA D67K, full length (bacteriophage T4, UniProt P22915 1-211, D67K); experiment: fluorescence polarisation
T7 sequence (looked up): T1 sequence with D67K

[9] = target: T8, MotA K3E, full length (bacteriophage T4, UniProt P22915 1-211, K3E); experiment: fluorescence polarisation
T8 sequence (looked up): T1 sequence with K3E

[10] = target: T9, MotA K28E, full length (bacteriophage T4, UniProt P22915 1-211, K28E); experiment: fluorescence polarisation
T9 sequence (looked up): T1 sequence with K28E

[11] = target: T10, MotA Q76R, full length (bacteriophage T4, UniProt P22915 1-211, Q76R); experiment: fluorescence polarisation
T10 sequence (looked up): T1 sequence with Q76R

B1: 21 bp MotA box DNA (dsDNA)
DNA 1: GAATTATTTGCTTTAGATTAC
DNA 2: GTAATCTAAAGCAAATAATTC
Q: How did the Kd [1] turn out when B1 was run?
A: ~0.6 µM

B2: AsiA/σ4 complex (preformed binary complex of AsiA and σ^70 region 4, residues 533 to 613) (complex, bacteriophage T4 | E. coli)
chain 1: T3 sequence (looked up)
chain 2: DSATTESLRAATHDVLAGLTAREAKVLRMRFGIDMNTDYTLEEVGKQFDVTRERIRQIEAKALRKLRHPSRSEVLRSFLDD
Q: Does B2 bind [2]?
A: binds

B3: σ4 (σ^70 region 4, residues 533 to 613) (domain or fragment, E. coli, UniProt P00579 533-613, looked up)
chain: B2 chain 2
Q: Does B3 bind [2]?
A: binds

Q: Does B3 bind [3]?
A: binds

Q: How did the Kd [4] turn out when {FITC}-PSRSEVLRSFLDD (peptide, UniProt P00579 601-613, looked up) [fluorescein-tagged σ4-H5 peptide (σ^70 residues 601-613)] was run?
A: 15.9 ± 1.3 µM

Q: And the Kd [5]?
A: 44.7 ± 5 µM

Q: What about the Kd [6] of the same binder?
A: 12 ± 1 µM

Q: What about the Kd [7] of the same binder?
A: 10 ± 1 µM

Q: And the Kd [8]?
A: 24.3 ± 0.1 µM

Q: And the Kd [9]?
A: > 300 µM

Q: And the Kd [10]?
A: > 300 µM

Q: What about the Kd [11] of the same binder?
A: 39.1 ± 5 µM
